{"source": "paper PMC11969024", "about": "“Development of chemokine network inhibitors using combinatorial saturation mutagenesis” (Communications Biology, 2025)", "molecules": {"B1": {"name": "CCL21: human chemokine, Peprotech 300-35A (protein)", "chain": "SDGGAQDCCLKYSQRKIPAKVVRSYRKQEPSLGCSIPAILFLPRKRSQAELCADPKELWVQQLMQHLDKTPSPQKPAQGCRKDRGASKTGKKGKGSKGCKRTERSQTPKGP"}, "B2": {"name": "CCL23: human chemokine, Biolegend 587002 (protein, UniProt P55773 22-120, looked up)", "C-C motif chemokine 23": "RVTKDAETEFMMSKLPLENPVLLDRFHATSADCCISYTPRSIPCSLLESYFETNSECSKPGVIFLTKKGRRFCANPSDKQVQVCMRMLKLDTRIKTRKN"}, "B3": {"name": "CCL8: human chemokine, Peprotech 300-15 (protein, UniProt P80075 24-99, looked up)", "C-C motif chemokine 8": "QPDSVSIPITCCFNVINRKIPIQRLESYTRITNIQCPKEAVIFKTKRGKEVCADPKERWVRDSMKHLDQIFQNLKP"}, "B4": {"name": "CCL14: human chemokine, Peprotech 300-38B (protein, UniProt Q16627 20-93, looked up)", "C-C motif chemokine 14": "TKTESSSRGPYHPSECCFTYTTYKIPRQRIMDYYETNSQCSKPGIVFITKRGHSVCTNPSDKWVQDYIKDMKEN"}}, "key": {"activated T-cells (ATC)": {"test_system": "activated T-cells (ATC)", "test": "Chemokine dose-response, activated T-cell (ATC) migration", "type": "cell-based, human", "conditions": "mean of biological replicates (3-6)", "procedure": "Cell lines were confirmed mycoplasma free by monthly testing using a MycoAlert^TM kit (LT07-118, Lonza) following the manufacturer’s instructions. THP1 cells: THP1 cells (ECACC 88081201, a human monocyte leukemia cell line[51]) were obtained from ECACC and were cultured in T175 flasks at 0.3-1 × 10^6 cells/mL in Roswell Park Memorial Institute (RPMI) 1640 medium (R0883, Sigma) with 10% FBS (F9665, Sigma) and 5mM L-glutamine (G7513, Sigma), 37 °C, 5% CO2. J:CXCR1 cells: The J:CXCR1 cell line was cultured in the same manner as THP1 cells at 0.15-1 × 10^6 cells per mL[37]. Activated T-cells: T-cells were isolated, activated and expanded as follows. […] The final pellet was resuspended in 1 mL of MACS buffer per 5 mL of initial blood volume and counted using cell size FSC-H/SSC-H parameters with gate settings previously defined by immunostaining (see below). […]\nCell counts were determined using an ATTUNE NxT Flow Cytometer with Cytkick autosampler (ThermoFisher), based on cell size parameters FSC-H/SSC-H, with previously defined gate settings. FSC-H/SSC-H gate settings for primary white blood cells from buffy coats were determined using flow cytometry to establish the granulocyte, monocyte and lymphocyte populations (Supplementary Fig. 13). […]"}, "THP1 cells": {"test_system": "THP1 cells", "test": "Chemokine dose-response, THP1 cell migration", "type": "cell-based, human", "conditions": "mean of biological replicates (2-7); for Mean pEC80: 3-parameter log-logistic fit, maximum fixed at 100%", "procedure": "Cell lines were confirmed mycoplasma free by monthly testing using a MycoAlert^TM kit (LT07-118, Lonza) following the manufacturer’s instructions. THP1 cells: THP1 cells (ECACC 88081201, a human monocyte leukemia cell line[51]) were obtained from ECACC and were cultured in T175 flasks at 0.3-1 × 10^6 cells/mL in Roswell Park Memorial Institute (RPMI) 1640 medium (R0883, Sigma) with 10% FBS (F9665, Sigma) and 5mM L-glutamine (G7513, Sigma), 37 °C, 5% CO2. J:CXCR1 cells: The J:CXCR1 cell line was cultured in the same manner as THP1 cells at 0.15-1 × 10^6 cells per mL[37]. Activated T-cells: T-cells were isolated, activated and expanded as follows. Briefly, density gradient centrifugation using Lymphoprep^TM density gradient medium (07801, […] Technologies) and a SepMate^TM isolation tube (85450, […] Technologies) was used to isolate peripheral blood mononuclear cells from human leukocyte cones. Two rounds of purification using a human CD8 + T-cell isolation kit (480011, BioLegend) were used to isolate CD8 + T-cells from peripheral blood mononuclear cells. Activation of CD8 + T-cells was performed in ImmunoCult^TM-XF T-cell expansion medium (10982, […] Technologies) with an anti-CD3/anti-CD28 T-cell activator at 25 μl/ml (10991, […] Technologies), supplemented with 10 ng/ml recombinant human IL-2 (200-02, PeproTech) with 1% penicillin/streptomycin. T-cells were passaged every 2–3 days in TexMACS medium (130-097-196, Miltenyi Biotec), supplemented with 10 ng/ml human IL-2 (200-05-250, Peprotech) and incubated at 37 °C in 5% CO2. CD8 + T-cells were frozen at day 10-13 after initial activation, at 20×10^6 cell/ml in TexMACS medium supplemented with 10% DMSO (D2650, Sigma) in liquid nitrogen. Activated CD8^+ T-cells were recovered in TexMACs medium at 0.3 × 10^6 cell/ml and incubated at 37 °C in 5% CO2, 24 h prior to use. For buffy coat experiments a mixture of primary human monocytes, granulocytes and lymphocytes was isolated from human buffy coat. Briefly, RBCs were sedimented in HetaSep (07806, […] Technologies) with 1 mL of HetaSep per 5 mL of blood for 15 min at 37 °C. The buffy coat layer was collected from the top and washed in 50 ml MACS buffer (PBS (P4417, Sigma), 0.5% BSA (A7030, Sigma), 0.075% EDTA (E5134, Sigma), pH 7.2), by centrifugation at 2000 g for 10 min at room temperature. The pellet was resuspended in 10 mL of 1x RBC lysis solution (130-094-183, Miltenyi Biotec) and lysed for 10 min at room temperature. The cells were then washed in MACS buffer twice as above. The final pellet was resuspended in 1 mL of MACS buffer per 5 mL of initial blood volume and counted using cell size FSC-H/SSC-H parameters with gate settings previously defined by immunostaining (see below). The leukocytes were then resuspended in assay buffer for cell migration and used within 30 min of isolation.\nCell counts were determined using an ATTUNE NxT Flow Cytometer with Cytkick autosampler (ThermoFisher), based on cell size parameters FSC-H/SSC-H, with previously defined gate settings. FSC-H/SSC-H gate settings for primary white blood cells from buffy coats were determined using flow cytometry to establish the granulocyte, monocyte and lymphocyte populations (Supplementary Fig. 13). Briefly, cells were labelled with anti-CD3 (Miltenyi Biotec, 130-113-135) to identify the T cell population, anti-CD14 (Miltenyi Biotec, 130-110-578) to identify the monocyte population, and with anti-CD16 (Miltenyi Biotec, 130-113-951) to identify the granulocyte population. Negative control cells were labelled with anti-human IgG1 (Miltenyi Biotec, 130-113-434). All antibodies were allophycocyanin (APC) conjugated. 100,000 white blood cells were added to Eppendorf tubes and centrifuged at 300 g for 3 min. The supernatant was discarded, and the cells resuspended in 98 µL of MACS buffer (1× PBS, 2 mM EDTA and 0.5% BSA, sterile filtered). 2 µl of antibody was added to the cells. […]"}}, "data": [{"molecule": "B1", "values": [{"measurement": "Mean pEC50", "setting": "activated T-cells (ATC)", "value": "7.98 [M]"}, {"measurement": "Mean pEC80", "setting": "activated T-cells (ATC)", "value": "7.42 [M]"}]}, {"molecule": "B2", "values": [{"measurement": "Mean pEC80", "setting": "THP1 cells", "value": "8.66 [M]"}, {"measurement": "Mean pEC50", "setting": "THP1 cells", "value": "8.97 [M]"}]}, {"molecule": "B3", "values": [{"measurement": "Mean pEC80", "setting": "THP1 cells", "value": "7.84 [M]"}, {"measurement": "Mean pEC50", "setting": "THP1 cells", "value": "8.19 [M]"}]}, {"molecule": "B4", "values": [{"measurement": "Mean pEC80", "setting": "THP1 cells", "value": "9.23 [M]"}, {"measurement": "Mean pEC50", "setting": "THP1 cells", "value": "9.61 [M]"}]}]}
